experiment: soluble on expression in E. coli; label from the status in PepcDB or PDB records

| Sequence | soluble on expression in E. coli |
| --- | --- |
| SAIITTTTVRFTDGTSPTFFSSASTKAYNLHFLYSNSTQRLTNPKFGIGGKLKVTVNPYSYTEEVRPEERKSLTDFLTEAGDFVNSDGGDGGPPRWFSPLECGARAPESPLLLYLPGIDGTGLGLIRQHKRLGEIFDIWCLHFPVKDRTPARDIGKLIEKTVRSEHYRFPNRPIYIVGESIGASLALDVAASNPDIDLVLILANPVTRFTNLMLQPVLALLEILPDGVPGLITENFGFYQEMFETMLNENDAAQMGRGLLGDFFATSSNLPTLIRIFPKDTLLWKLQLLKSASASANSQMDTVNAQTLILLSGRDQWLMNKEDIERLRGALPRCEVRELENNGQFLFLEDGVDLVSIIKRAYYYRRGKSLDYISDYILPTPFEFKEYEESQRLLTAVTSPVFLSTLKNGAVVRSLAGIPSEGPVLYVGNHMLLGMELHAIALHFLKERNILLRGLAHPLMFTKKTGSKLPDMQLYDLFRIIGAVPVSGMNFYKLLRSKAHVALYPGGVREALHRKGEEYKLFWPEHSEFVRIASKFGAKIIPFGVVGEDDLCEMVLDYDDQMKIPFLKNLIEEITQDSVNLRNDEEGELGKQDLHLPGIVPKIPGRFYAYFGKPIDTEGREKELNNKEKAHEVYLQVKSEVERCMNYLKIKRETDPYRNILPRSLYYLTHGFSSQIPTFDLRNH | not soluble |
| SALTAALSVCPLPSSSFFFAGFLPHKKGRKSRLEFLASIDSTIVLYESPHRIGRLMEEVKEHFPDAQVFAAREITKMHEEYVTGTPDELANHFTGQKQRGEFVVVVHPPDKH | not soluble |
| SAQESLESQEQRARAALRERYLRSLLAMVGHQVSFTLHEGVRVAAHFGATDLDVANFYVSQLQTPIGVQAEALLRCSDIISYTFKP | soluble |
| SARKKIREYDSKRLLKEHLKRLANIDLQIRSAQVTESTDFTELTNQESWLSSTKLVVKPDMLFGKRGKSGLVALKLDLAEVADFVKARLGTEVEMEGCKAPITTFIVEPFVPHDQEYYLSIVSDRLGCTISFSECGGIEIEENWDKVKTIFLPAEKSMTLEVCAPLIATLPLEVRAKIGNFIMGAFAVFQDLDFSFMEMNPFTLVDGEPFPLDMRGELDDTAAFKNFNKWGDIEFPLPFGRVLSSTENFIHGLDEKTSASLKFTVLNPKGRIWTMVAGGGASVIYADTVGDLGYASELGNYAEYSGAPNEEEVLQYARVVIDCATTDPDGRKRALLIGGGIANFTDVAATFNGIIRALREKETRLKASRMHIYVRRGGPNYQTGLARMRALGEELGVPLEVYGPEATMTGICKRAIDCIMLPDA | not soluble |
| SASEDAALDATGHKKGEPAFGVTIPKGTTYRDSDGKEVPHPCVDRKIGYQGHFDALYGTYNYSVKEPATDLPKLELMAVDGQQVVPQESLCFRLPPDAGEDGEELSRIRIPDDEEFSFLGKPGDIVWYAPQNIPFANGHRPIWAGIGAFDPHHEPKGKDSIPEHLDKNMYFELKDFSGPGDVNVFFKNNSRKEVERIFSSNDEELKTIEYEMGSHGHFNWTFSKPGIYELTWEAYVKNGAFKVKTEPVRQIWLVGSDEEVGLPEGTTTNLNKITKPLDKDATNEPPTDPSEKKKPPRPEKGHSETSSPSALDDSIERAWKLTGTPKTIINDGHMDLALTRPDKEFVTVINREGKKYSSGDVTLAVPDSGGDQGGPLVKTDSWKDRIEAQISGSLPDQAWVLPESQDHKLPWVGFSNEDLPSDALLPDSKMTVSLNKVELPHDGRMISWHNGISGIDLLTDTDDLSKNLEYGLHAHDHQSMLFTKEGAYGLEYSFDITTASGKQESYPLHISYLVGDATIARAKEILAGEKLGGSLKKKPQEKETKKPASVQNKSGKHNKDTVGSESARKRQQLAATSGSDTNGIYSFHDGDVQDEAVTTAAEWQELDT | not soluble |
| SASKIKGRPPKQPKVTPALPSNDSQQLHENNPGNNLALETCGESSSSHGTGGPKPGPSKKTLNERKRKYGVSVNKTVQNIEWNVDHFLKVQHERRQELYKDYSHQFLTLVMMWNIDVDQIKKQAGKLSDILDEQQKLFQQFQSIHMQKIEEFKELCDRHLKNLQAIKCCRRKAIIEEARKLMDYLEKRVTEETVHVNKQEAKDGVQSSLLSLLIS | soluble |
| SASRGYLHHLLTAEGAWEEFVSKAKLPRDRAVALHKALRDLTALLAIAERGRSRKGWKGKEKFVKAFPCLKADLEEHISQLYALADHAEELHRGCTVSNMVADSFSVASDILNLFGLFLAPESAEGSLVLSAAGLGLGVAATVTNVATSIMKETSRVLDGVEAGHHGSTAMDILEEAGTSVARIASEIPQATRDITRDLEALEQHMNALSLVRANPRLEEDARALINAGSIPAQRAKQVRASLKGTPLAMSKEDRIRSATTTGVTLLRDVGSLVNESKQLYEGSASESAAALRKLAQELEEKLGELMKFYETI | not soluble |

— the DeepSol protein solubility set
